We go through one molecule from PMC7498260, “The peroxisome counteracts oxidative stresses by suppressing catalase import via Pex14 phosphorylation” (eLife, 2020).

The target in the test is Pex5L (Chinese hamster, ClPex5L) (Chinese hamster, UniProt Q920N5 1-640). Briefly: pull-down; GST-Pex14 variants (2 μg) on glutathione-Sepharose beads incubated with Pex5L (2 μg) together with EGFP-PTS1 (4 μg) or HA-catalase (4 μg), 2 hr at 4°C, 50 mM Tris-HCl pH 7.5, 0.15 M NaCl, 1% Triton X-100, 10% glycerol; bound fraction by immunoblot, quantified and normalised by GST-Pex14. The conditions noted are these: both partners purified.

B1: HA-catalase (human) (enzyme)
chain: MADSRDPASDQMQHWKEQRAAQKADVLTTGAGNPVGDKLNVITVGPRGPLLVQDVVFTDEMAHFDRERIPERVVHAKGAGAFGYFEVTHDITKYSKAKVFEHIGKKTPIAVRFSTVAGESGSADTVRDPRGFAVKFYTEDGNWDLVGNNTPIFFIRDPILFPSFIHSQKRNPQTHLKDPDMVWDFWSLRPESLHQVSFLFSDRGIPDGHRHMNGYGSHTFKLVNANGEAVYCKFHYKTDQGIKNLSVEDAARLSQEDPDYGIRDLFNAIATGKYPSWTFYIQVMTFNQAETFPFNPFDLTKVWPHKDYPLIPVGKLVLNRNPVNYFAEVEQIAFDPSNMPPGIEASPDKMLQGRLFAYPDTHRHRLGPNYLHIPVNCPYRARVANYQRDGPMCMQDNQGGAPNYYPNSFGAPEQQPSALEHSIQYSGEVRRFNTANDDNVTQVRAFYVNVLNEEQRKRLCENIAGHLKDAQIFIQKKAVKNFTEVHPDYGSHIQALLDKYNAEKPKNAIHTFVQSGSHLAAREKANL
notes: catalase, human (HsCatalase); HA-Catalase amplified from pUcD3/HA-HsCatalase (Otera and Fujiki, 2012) and cloned into pGEX6P-1; The forward primer GST-HA-HsCatalase.BglFw starts with ATG GCT TAT CCA TAC GAC, i.e. the HA tag lies at the N-terminus of catalase; also called HA-HsCatalase; source: E. coli DH5α, GST fusion purified with glutathione-Sepharose beads, isolated by cleaving …
In the case of B1, the binding result was “binds”.
